Results taken from paper PMC4145800, “A tethered delivery mechanism explains the catalytic action of a microtubule polymerase” (eLife, 2014).

Target: T1, wild-type (polymerization-competent) yeast αβ-tubulin (yeast, UniProt P09733 1-447; P02557 1-457)
T1 construct: α-tubulin of yeast; β-tubulin of yeast, wild type; source: overexpressed in Saccharomyces cerevisiae, purified; copies: 1 + 1
Assay: AUC; sedimentation velocity; seven concentrations of TOG1 or TOG2 (44 nM-4.5 μM) titrated into 0.35 μM αβ-tubulin; 1:1 binding isotherm fitted; RB100 with 20 μM GTP, 20°C
Settings: both partners purified

B1: TOG2 domain from Stu2p, TOG2(318-560) (domain or fragment)
chain: MLPEETILDKLPKDFQERITSSKWKDRVEALEEFWDSVLSQTKKLKSTSQNYSNLLGIYGHIIQKDANIQAVALAAQSVELICDKLKTPGFSKDYVSLVFTPLLDRTKEKKPSVIEAIRKALLTICKYYDPLASSGRNEDMLKDILEHMKHKTPQIRMECTQLFNASMKEEKDGYSTLQRYLKDEVVPIVIQIVNDTQPAIRTIGFESFAILIKIFGMNTFVKTLEHLDNLKRKKIEETVKTL
What does the source list for B1?
Kd: 160 nM; stoichiometry N: 1
